These results are taken from publication PMC6383938 (PLoS Biology, 2019).

In series [1] the target is human copper chaperone for SOD1 domain II–III construct (human). The series is described as follows: SEC-MALS; SEC and light scattering–derived molecular weights of hCCS truncations at micromolar concentration.
Series [2] has as its target human superoxide dismutase-1 as used in the SEC complexation assays (variant not stated) (human) (UniProt P00441). The series is described as follows: SEC; complexation of hCCS dimer interface variants with hSOD1 followed over a time course from 8 minutes to 4 days; Agilent BioSec Advance 300 Å 4.6 × 300 mm column; heterodimer peak height plotted. A general note: SEC sorts molecules by how far they enter the pores of the column.

Series [3] deals with the molecule itself. The series is described as follows: SEC; size exclusion chromatograms of hCCS alone (wild type and Ala231Gly); relative amounts of dimeric and monomeric species.

As usually defined, the stoichiometry N is the number of molecules, sites or subunits per partner or assembly. “human copper chaperone for SOD1 domain II–III construct (domain or fragment)”: the stoichiometry N in series [1] stood at 2.

B1: human copper chaperone for SOD1 Ala231Gly (natural protein, UniProt O14618 1-274, looked up)
chain: MASDSGNQGTLCTLEFAVQMTCQSCVDAVRKSLQGVAGVQDVEVHLEDQMVLVHTTLPSQEVQALLEGTGRQAVLKGMGSGQLQNLGAAVAILGGPGTVQGVVRFLQLTPERCLIEGTIDGLEPGLHGLHVHQYGDLTNNCNSCGNHFNPDGASHGGPQDSDRHRGDLGNVRADADGRAIFRMEDEQLKVWDVIGRSLIIDEGEDDLGRGGHPLSKITGNSGERLACGIIGRSAGLFQNPKQICSCDGLTIWEERGRPIAGKGRKESAQPPAHL
notes: also called Ala231Gly hCCS; A231G hCCS; source: expressed and purified as previously described [29,35,42]
As for B1, the fold slower complexation than with wild-type hCCS in series [2] was more than 300 fold. In addition, in series [3], the binding result was “binds”.

B2: wild-type human copper chaperone for SOD1 (natural protein, UniProt O14618 1-274, looked up)
chain: MASDSGNQGTLCTLEFAVQMTCQSCVDAVRKSLQGVAGVQDVEVHLEDQMVLVHTTLPSQEVQALLEGTGRQAVLKGMGSGQLQNLGAAVAILGGPGTVQGVVRFLQLTPERCLIEGTIDGLEPGLHGLHVHQYGDLTNNCNSCGNHFNPDGASHGGPQDSDRHRGDLGNVRADADGRAIFRMEDEQLKVWDVIGRSLIIDEGEDDLGRGGHPLSKITGNSGERLACGIIARSAGLFQNPKQICSCDGLTIWEERGRPIAGKGRKESAQPPAHL
notes: human copper chaperone for SOD1 (hCCS), wild type; also called hCCS; wild-type hCCS; source: expressed and purified as previously described [29,35,42]
Consider B2, for which the binding result in series [3] is given as “binds”.
